Residue numbers refer to the chain shown, from its start.

To fix the notation:
T1: human TNFR2 on GloResponse NF-kB-RE-luc2p HEK293 reporter cells (human, UniProt P20333 23-461)
T1 sequence: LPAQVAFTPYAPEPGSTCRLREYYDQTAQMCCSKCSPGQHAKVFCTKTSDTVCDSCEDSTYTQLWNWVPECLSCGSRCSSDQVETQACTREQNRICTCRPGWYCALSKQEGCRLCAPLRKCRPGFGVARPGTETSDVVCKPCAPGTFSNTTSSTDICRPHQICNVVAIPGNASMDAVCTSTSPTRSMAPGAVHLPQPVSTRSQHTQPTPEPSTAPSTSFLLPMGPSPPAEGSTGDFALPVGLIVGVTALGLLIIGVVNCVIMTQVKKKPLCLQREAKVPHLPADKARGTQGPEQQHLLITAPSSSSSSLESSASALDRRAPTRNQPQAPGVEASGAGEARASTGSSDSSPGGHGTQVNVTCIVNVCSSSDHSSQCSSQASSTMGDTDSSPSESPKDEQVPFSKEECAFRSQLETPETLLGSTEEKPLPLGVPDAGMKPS

T2: human TNFR2-His (human, UniProt P20333 23-257)
T2 construct: not shown: His tag
T2 sequence: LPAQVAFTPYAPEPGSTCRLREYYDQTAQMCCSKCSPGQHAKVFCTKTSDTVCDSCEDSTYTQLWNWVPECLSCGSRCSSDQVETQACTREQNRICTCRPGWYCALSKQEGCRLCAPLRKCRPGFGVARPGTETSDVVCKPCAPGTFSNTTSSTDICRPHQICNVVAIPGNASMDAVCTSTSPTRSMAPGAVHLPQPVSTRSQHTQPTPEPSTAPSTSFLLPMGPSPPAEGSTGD

B1: ABV2 chimera (ABV2c) (antibody, human IgG1, kappa, V domains shown)
VH: QIQLVQSGPELKKPGETVKISCKASGYTFTTFGMSWVKQAPGKGLKWMGWINTYSGVPTYADDFKGRFAFSLETSASTAYLQINNLKNEDTATYFCARRSNFAYWGQGTLVTVSA
VL: DIVLTQSPASLAVSLGQRATISCRASESVDSSGNSFMHWYQQKAGQSFKLLIYRASNLESGIPARFSGSGSRTDFTLTINPVEADDVATYYCQQSNEDPWTFGGGTKLEIKR
notes: VH and VL of mouse ABV2 fused with human IgG1 and human kappa constant regions; also called ABVc; chimeric anti-human TNFR2 antibody
B2: ABV2.7 (antibody, human IgG1, kappa, V domains shown)
VH: QVQLVQSGSELKKPGASVKVSCKASGYTFTTFGMSWVRQAPGQGLEWMGWINTYSGVPTYAQGFTGRFVFSLDTSVSTAYLQISSLKAEDTAVYFCARRSNFAYWGQGTLVTVSS
VL: DIVLTQSPDSLAVSLGERATINCRASESLTASGNSFMHWYQQKPGQPPKLLIYRASNLESGVPDRFSGSGSRTDFTLTISSLQAEDVAVYYCQQSRHVNWTFGGGTKVEIKR
B3: ABV2.1 (ABV2 hum #2 HD3) (antibody, V domains shown)
VH: B2 VH
VL: DIVLTQSPDSLAVSLGERATINCRASESVDSSGNSFMHWYQQKPGQPPKLLIYRASNLESGVPDRFSGSGSRTDFTLTISSLQAEDVAVYYCQQSNEDPWTFGGGTKVEIK
notes: humanized ABV2; also called parental antibody
B4: ABV2.13 (antibody, human IgG1, kappa, V domains shown)
VH: B2 VH with T59H
VL: DIVLTQSPDSLAVSLGERATINCRASQTVDSSGNSFMHWYQQKPGQPPKLLIYLGNRLESGVPDRFSGSGSRTDFTLTISSLQAEDVAVYYCQQSNEDPWTFGGGTKVEIKR
B5: ABV2.15 (antibody, human IgG1, kappa, V domains shown)
VH: B2 VH with T59H
VL: B2 VL

In one assay the target is T1, human TNFR2 on GloResponse …. Briefly: cell-based or functional assay.
Take B1: the “EC50 in stimulating NF-kB activity” value stood at 8.6 µg/mL.

Consider B2, for which the “EC50 in stimulating NF-kB activity” value worked out at 10.8 µg/mL.

For B3, the “EC50 of induced NF-kB activity” value came out at 1.6 µg/mL.

Turning to B4, the “EC50 in stimulating NF-kB activity” value is 4.1 µg/mL.

With B5, the “EC50 in stimulating NF-kB activity” value was 9.3 µg/mL and the “EC50 of induced NF-kB activity” value stood at 5.3 µg/mL.

The target of another assay is T2, human TNFR2-His. Briefly: BLI, antibody on anti-Human Fc Capture (AHC) biosensors, human TNFR2-His in solution. On the procedure:
Binding affinities for human TNFR2 of the affinity-matured anti-human TNFR2 antibodies generated in Example 30 were measured by bio-layer interferometry (BLI). Briefly, a BLI kinetic assay was performed using anti-Human Fc Capture (AHC) biosensors (ForteBio) under the following conditions: (a) loading of antibody (4 μg/mL) for 60 sec, (b) baseline for 60 sec, (d) association with human TNFR2-His ([…]) for 300 sec, and (e) dissociation for 300 sec.
With B1, the affinity, expressed as Kd, was 0.689 nM.

In the case of B2, the Kd (commonly the free concentration of one partner at which half of the binding sites on the other are occupied at equilibrium, for simple one-to-one binding) is 0.3 nM.

Molecule B3 returned a dissociation constant Kd of 4.42 nM.

B4 displayed an equilibrium dissociation constant (Kd) of 1.59 nM.

B5: the affinity, expressed as Kd, was 0.158 nM.

The target of the next assay is his-tagged mouse TNFR2 (mouse) (UniProt P25119). Put plainly: blocking ELISA: His-tagged mouse TNFR2 coated, antibody titrated, then recombinant mouse TNF-alpha added and detected; OD450 normalized.
his-tagged mouse TNFR2 (mouse), sequence (P25119 23-258 limits assumed): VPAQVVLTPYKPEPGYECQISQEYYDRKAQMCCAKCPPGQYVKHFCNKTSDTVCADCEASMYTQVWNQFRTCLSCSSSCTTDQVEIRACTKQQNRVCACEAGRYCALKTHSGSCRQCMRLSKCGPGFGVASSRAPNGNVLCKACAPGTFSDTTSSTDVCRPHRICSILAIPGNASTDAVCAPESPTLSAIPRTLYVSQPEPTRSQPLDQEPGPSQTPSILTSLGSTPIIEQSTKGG
Take 54.7 (Bioxcell) (antibody): the IC50 (read off the curve) was found to be 2 nM.

Values taken from patent US20210371537A1 (MERRIMACK PHARMACEUTICALS, published 2021).
